According to paper doi:10.1101/2021.08.02.454546 (2021):

Biological target: CV3–25 IgG
Experiment: SPR

Sequence of CV3–25 IgG (VH, as listed by the source, chain 1 of 2): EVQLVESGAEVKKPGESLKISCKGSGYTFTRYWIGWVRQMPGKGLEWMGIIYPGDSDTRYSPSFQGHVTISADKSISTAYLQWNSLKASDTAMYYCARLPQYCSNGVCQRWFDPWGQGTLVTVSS
Sequence of CV3–25 IgG (VL, as listed by the source, chain 2 of 2): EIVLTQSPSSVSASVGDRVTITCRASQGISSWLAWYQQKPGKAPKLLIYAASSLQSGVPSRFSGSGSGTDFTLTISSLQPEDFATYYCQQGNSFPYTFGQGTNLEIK

Binder DKYFKNHTSPD [shorter version of peptide #289 (1153-DKYFKNHTSPD-1163)] has a koff of 0.0761 s⁻¹.

DKYFKNHTSPDVDLG [SARS-CoV-2 S2 peptide #289 (1153-DKYFKNHTSPDVDLG-1167)] gave a koff of 0.0319 s⁻¹.
